Five molecules from US20230212587A1, “Mutant Hydroxyphenylpyruvate Dioxygenase Polypeptide, Encoding Gene Thereof and Use Therefor” (Beijing Dabeinong Biotechnology Co., Ltd., priority 2019, published 2023) can be followed below.

In the experiment the test system is Arabidopsis thaliana T1 plants. Kind of experiment: Topramezone tolerance of transgenic Arabidopsis thaliana T1 plants (pesticide damage grade by bleached leaf area, score, resistance evaluation). Also noted: score: scale not given here. Particulars: for Resistance evaluation / Scores / Classification and statistics of pesticide damage grade: Grade 0 / Classification and statistics of pesticide damage grade: Grade 1 / Classification and statistics of pesticide damage grade: Grade 2 / Classification and statistics of pesticide damage grade: Grade 3: HPPDs from ecotypes of Triticum aestivum; for Classification and statistics of pesticide damage grade: Grade 0 / Classification and statistics of pesticide damage grade: Grade 1 / Classification and statistics of pesticide damage grade: Grade 2 / Classification and statistics of pesticide damage grade: Grade 3 / Grade 0 / Grade 1 / Grade 2 / Grade 3: number of plants; for Resistance Grade / score / Grade 0 / Grade 1 / Grade 2 / Grade 3: HPPD from Avena sativa source. It counts as in vivo. In a few lines: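 Herbicide tolerance was judged per plant on a bleaching scale (grade 0 no bleaching to grade 3 fully bleached) 7 DAT. Topramezone doses were 0, 25, 50 and 100 g ai/ha on 18-day-old T1 and wild-type plants.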

B1: TaHPPD6-02: native HPPD of Triticum aestivum ecotype 6, UniProt A0A3B5YPS5, SEQ ID NO: 207 (protein, listed as Triticum aestivum)
chain: MVRFNPGSDRFHTLAFHHIEFWCTDAASADGRFAFSLGAPLAARSDLSTGNSTHASQLLRPGSLAFLFTAPYANGCIFSVDAARRFFADHGLAVRSVALRVADAAKAFRASVDGGARPAFAPVDLGRGFGFAEVKLYGDVVLRFVSHPDGTDVPFLPGLFEGVSNPGAVHYGLTRFDHIVGNVPELAPAAAYVAGLTGFHEFAEFTTEDVGTAQSGLNSVVLANTSEGVPLLLNEPVHGTKRRRQIQTFLEHHGGPGVQHIAVASSEVFRTLREMHARSSMGGFDFLPPPLPKYYEGVRRLAGDVLSEAQIKECQELGVLVNRDDQGVLLQIFTKPVGDRPTFFLEMIQRIGCMEKDERGEEYQKGGCGGFGKGNISELFKSIEDYEKSLEAKQSAAVQGSYI
modifications: TaHPPD6 Amino Acid Sequence
Regarding B1, for the setting “topramezone 25 g ai/ha (1x)”, the Resistance evaluation result is on record as “non-resistant (non-resistant plants (scores 68-100))”; the Scores worked out at 88; the “Classification and statistics of pesticide damage grade: Grade 0” value (“Classification and statistics … Grade 0” below) came out at 0; the “Classification and statistics of pesticide damage grade: Grade 1” value (shortened to “Classification and statistics … Grade 1”) is given as 0. Besides, for the setting “topramezone 25 g ai/ha (1x)”, the “Classification and statistics of pesticide damage grade: Grade 2” value (“Classification and statistics … Grade 2” for short) turned out to be 6; the “Classification and statistics of pesticide damage grade: Grade 3” value (“Classification and statistics … Grade 3” below) came out at 10. Besides, for the setting “topramezone 100 g ai/ha (4x)”, the Resistance evaluation entry is “non-resistant (non-resistant plants (scores 68-100))”; the Scores worked out at 96; the “Classification and statistics … Grade 0” value is reported as 0; the “Classification and statistics … Grade 1” value turned out to be 0. Moreover, under “topramezone 100 g ai/ha (4x)”, the “Classification and statistics … Grade 2” value is 2; the “Classification and statistics … Grade 3” value amounted to 14.

B2: TaHPPD6m-F372A-02: Triticum aestivum ecotype 6 HPPD mutant F372A, SEQ ID NO: 210 (protein)
chain: MVRFNPGSDRFHTLAFHHIEFWCTDAASADGRFAFSLGAPLAARSDLSTGNSTHASQLLRPGSLAFLFTAPYANGCIFSVDAARRFFADHGLAVRSVALRVADAAKAFRASVDGGARPAFAPVDLGRGFGFAEVKLYGDVVLRFVSHPDGTDVPFLPGLFEGVSNPGAVHYGLTRFDHIVGNVPELAPAAAYVAGLTGFHEFAEFTTEDVGTAQSGLNSVVLANTSEGVPLLLNEPVHGTKRRRQIQTFLEHHGGPGVQHIAVASSEVFRTLREMHARSSMGGFDFLPPPLPKYYEGVRRLAGDVLSEAQIKECQELGVLVNRDDQGVLLQIATKPVGDRPTFFLEMIQRIGCMEKDERGEEYQKGGCGGFGKGNISELFKSIEDYEKSLEAKQSAAVQGSYI
modifications: TaHPPD6m-F372A Amino Acid Sequence
In the case of B2, under “topramezone 25 g ai/ha (1x)”, the Resistance evaluation result is “highly resistant (highly resistant plants (scores 0-15))”; the Scores is recorded as 0; the “Classification and statistics … Grade 0” value was 16; the “Classification and statistics … Grade 1” value stood at 0. For the same molecule, for the setting “topramezone 25 g ai/ha (1x)”, the “Classification and statistics … Grade 2” value turned out to be 0; the “Classification and statistics … Grade 3” value was found to be 0. In addition, where the note is “topramezone 100 g ai/ha (4x)”, the Resistance evaluation entry is “highly resistant (highly resistant plants (scores 0-15))”; the Scores is 2; the “Classification and statistics … Grade 0” value is listed as 15; the “Classification and statistics … Grade 1” value worked out at 1. Also, under “topramezone 100 g ai/ha (4x)”, the “Classification and statistics … Grade 2” value is recorded as 0; the “Classification and statistics … Grade 3” value stood at 0.

B3: F372L (protein, listed as Avena sativa)
chain: MPPTPATATGAAAAAVTPEHAARSFPRVVRVNPRSDRFPVLSFHHVELWCADAASAAGRFSFALGAPLAARSDLSTGNSAHASLLLRSGALAFLFTAPYAPPPQEAATAAATASIPSFSADAARTFAAAHGLAVRSVGVRVADAAEAFRVSVAGGARPAFAPADLGHGFGLAEVELYGDVVLRFVSYPDETDLPFLPGFERVSSPGAVDYGLTRFDHVVGNVPEMAPVIDYMKGFLGFHEFAEFTAEDVGTTESGLNSVVLANNSEAVLLPLNEPVHGTKRRSQIQTYLEYHGGPGVQHIALASNDVLRTLREMRARTPMGGFEFMAPPQAKYYEGVRRIAGDVLSEEQIKECQELGVLVDRDDQGVLLQILTKPVGDRPTFFLEMIQRIGCMEKDEVGQEYQKGGCGGFGKGNFSELFKSIEDYEKSLEVKQSVVAQKS
modifications: AsHPPD Amido Acid Sequence
As for B3, where the note is “topramezone 25 g ai/ha (1x)”, the “Resistance Grade” value is “Highly resistant”, the score turned out to be 0, the “Grade 0” value amounted to 20 and the “Grade 1” value came to 0. Further, for the setting “topramezone 25 g ai/ha (1x)”, the “Grade 2” value is on record as 0 and the “Grade 3” value is recorded as 0. For the same molecule, for the setting “topramezone 50 g ai/ha (2x)”, the “Resistance Grade” value is on record as “Highly resistant”, the score was 0, the “Grade 0” value is reported as 20 and the “Grade 1” value is on record as 0. Besides, where the note is “topramezone 50 g ai/ha (2x)”, the “Grade 2” value was found to be 0 and the “Grade 3” value amounted to 0. Moreover, for the setting “topramezone 100 g ai/ha (4x)”, the “Resistance Grade” value is recorded as “Moderately resistant”, the score was found to be 30, the “Grade 0” value is 6 and the “Grade 1” value was 10. Moreover, where the note is “topramezone 100 g ai/ha (4x)”, the “Grade 2” value was 4 and the “Grade 3” value is recorded as 0.

B4: TaHPPD7-02: native HPPD of Triticum aestivum ecotype 7, UniProt A7WK82, SEQ ID NO: 213 (protein, listed as Triticum aestivum)
chain: MPPTPTTPAATGAAAAAAVTPEHARPRRMVRFNPRSDRFHTLAFHHVEFWCADAASAAGRFAFALGAPLAARSDLSTGNSVHASQLLRSGNLAFLFTAPYANGCDAATASLPSFSADAARRFSADHGLAVRSIALRVADAAEAFRASVDGGARPAFSPVDLGRGFGFAEVELYGDVVLRFVSHPDGTDVPFLPGFEGVSNPDAVDYGLTRFDHVVGNVPELAPAAAYVAGFTGFHEFAEFTTEDVGTAESGLNSMVLANNSEGVLLPLNEPVHGTKRRSQIQTFLEHHGGPGVQHIAVASSDVLRTLREMRARSAMGGFDFLPPPLPKYYEGVRRIAGDVLSEAQIKECQELGVLVDRDDQGVLLQIFTKPVGDRPTCSWR
modifications: TaHPPD7 Amino Acid Sequence
As to B4, where the note is “topramezone 25 g ai/ha (1x)”, the Resistance evaluation entry was “non-resistant (non-resistant plants (scores 68-100))”; the Scores worked out at 100; the “Classification and statistics … Grade 0” value was determined as 0; the “Classification and statistics … Grade 1” value came out at 0. Also, where the note is “topramezone 25 g ai/ha (1x)”, the “Classification and statistics … Grade 2” value stood at 0; the “Classification and statistics … Grade 3” value is on record as 16. Further, for the setting “topramezone 100 g ai/ha (4x)”, the Resistance evaluation entry is on record as “non-resistant (non-resistant plants (scores 68-100))”; the Scores is reported as 100; the “Classification and statistics … Grade 0” value was determined as 0; the “Classification and statistics … Grade 1” value came out at 0. For the setting “topramezone 100 g ai/ha (4x)”, the “Classification and statistics … Grade 2” value is 0; the “Classification and statistics … Grade 3” value was found to be 16.

B5: TaHPPD7m-F372A-02: Triticum aestivum ecotype 7 HPPD mutant F372A, SEQ ID NO: 216 (protein)
chain: MPPTPTTPAATGAAAAAAVTPEHARPRRMVRFNPRSDRFHTLAFHHVEFWCADAASAAGRFAFALGAPLAARSDLSTGNSVHASQLLRSGNLAFLFTAPYANGCDAATASLPSFSADAARRFSADHGLAVRSIALRVADAAEAFRASVDGGARPAFSPVDLGRGFGFAEVELYGDVVLRFVSHPDGTDVPFLPGFEGVSNPDAVDYGLTRFDHVVGNVPELAPAAAYVAGFTGFHEFAEFTTEDVGTAESGLNSMVLANNSEGVLLPLNEPVHGTKRRSQIQTFLEHHGGPGVQHIAVASSDVLRTLREMRARSAMGGFDFLPPPLPKYYEGVRRIAGDVLSEAQIKECQELGVLVDRDDQGVLLQIATKPVGDRPTCSWR
modifications: TaHPPD7m-F372A Amino Acid Sequence
For the molecule B5, under “topramezone 25 g ai/ha (1x)”, the Resistance evaluation result was “highly resistant (highly resistant plants (scores 0-15))”; the Scores stood at 8; the “Classification and statistics … Grade 0” value is 12; the “Classification and statistics … Grade 1” value is on record as 4. Besides, where the note is “topramezone 25 g ai/ha (1x)”, the “Classification and statistics … Grade 2” value is 0; the “Classification and statistics … Grade 3” value was 0. Where the note is “topramezone 100 g ai/ha (4x)”, the Resistance evaluation result was “moderately resistant (moderately resistant plants (scores 16-33))”; the Scores is given as 21; the “Classification and statistics … Grade 0” value amounted to 6; the “Classification and statistics … Grade 1” value was 10. Further, under “topramezone 100 g ai/ha (4x)”, the “Classification and statistics … Grade 2” value was 0; the “Classification and statistics … Grade 3” value is 0.
